Results on four molecules are retold here after publication PMC3510509, “Binding of two DNA molecules by type II topoisomerases for decatenation”.

For series [1], the target named is MAEB hybrid gyrase (MsGyrA + EcGyrB) (Mycobacterium smegmatis / Escherichia …, UniProt P48354;P0AES6 1-842;1-804). Briefly: EMSA; one complex; EMSA: 35 mM Tris-HCl pH 7.5, 1 mM spermidine, 25 mM K-glutamate, 90 ug/ml tRNA, 1.4 mM ATP, 50 ug/ml BSA, room temp (25 C), 1 nM DNA; filter binding: same mix o. On the technique in general: A gel shift assay detects complexes by their altered migration in electrophoresis.

The target of series [2] is DNA gyrase holoenzyme (EcGyr) (Escherichia coli, UniProt P0AES4;P0AES6 1-875;1-804). Briefly: EMSA; 1.4 mM ATP; one complex; EMSA: 35 mM Tris-HCl pH 7.5, 1 mM spermidine, 25 mM K-glutamate, 90 ug/ml tRNA, 1.4 mM ATP, 50 ug/ml BSA, room temp (25 C), 1 nM DNA; filter binding: same mix o.
Series [3] has as its target EAMB hybrid gyrase (EcGyrA + MsGyrB) (Escherichia coli / Mycobacterium …, UniProt P0AES4;P0C559 1-875;1-675). Briefly: EMSA; two complexes; EMSA: 35 mM Tris-HCl pH 7.5, 1 mM spermidine, 25 mM K-glutamate, 90 ug/ml tRNA, 1.4 mM ATP, 50 ug/ml BSA, room temp (25 C), 1 nM DNA; filter binding: same mix on ice; SPR: 33 mM Tris-HCl pH 8.0, 5 mM MgCl2, 3 mM DTT, 25 C. To be noted: protein: recombinant; chain copies: 2;2; label: 32P 5'-end; blunt.

The target of another series is GyrB (MsGyrB) (Mycobacterium smegmatis, UniProt P0C559 1-675). Kind of series: EMSA; 0.1 and 0.2 uM GyrB; EMSA: 35 mM Tris-HCl pH 7.5, 1 mM spermidine, 25 mM K-glutamate, 90 ug/ml tRNA, 1.4 mM ATP, 50 ug/ml BSA, room temp (25 C), 1 nM DNA; filter binding: same mix on ice; SPR: 33 mM Tris-HCl pH 8.0, 5 mM MgCl2, 3 mM DTT, 25 C. To be noted: protein: recombinant; label: 32P 5'-end; blunt.

The target of series [4] is Topoisomerase IV holoenzyme (Escherichia coli, UniProt P0AFI2;P20083 1-752;1-630). Briefly: EMSA; 5-40 nM; two complexes; EMSA: 35 mM Tris-HCl pH 7.5, 1 mM spermidine, 25 mM K-glutamate, 90 ug/ml tRNA, 1.4 mM ATP, 50 ug/ml BSA, room temp (25 C), 1 nM DNA; filter binding: same mix on ice; SPR: 33 mM Tris-HCl pH 8.0, 5 mM MgCl2, 3 mM DTT, 25 C. To be noted: protein: recombinant; chain copies: 2;2; label: 32P 5'-end; blunt.

Series [5] concerns the target T1, DNA gyrase holoenzyme (MsGyr) (Mycobacterium smegmatis, UniProt P48354;P0C559 1-842;1-675). Briefly: EMSA; 1.4 mM ATP; two complexes; EMSA: 35 mM Tris-HCl pH 7.5, 1 mM spermidine, 25 mM K-glutamate, 90 ug/ml tRNA, 1.4 mM ATP, 50 ug/ml BSA, room temp (25 C), 1 nM DNA; filter binding: same mix on ice; SPR: 33 mM Tris-HCl pH 8.0, 5 mM MgCl2, 3 mM DTT, 25 C. To be noted: protein: recombinant, chain copies: 2;2, blunt.

The target in another series is GyrB R321A (Mycobacterium smegmatis, UniProt P0C559 1-675, R321A). Briefly: EMSA; 200 and 400 nM; complex not seen; EMSA: 35 mM Tris-HCl pH 7.5, 1 mM spermidine, 25 mM K-glutamate, 90 ug/ml tRNA, 1.4 mM ATP, 50 ug/ml BSA, room temp (25 C), 1 nM DNA; filter binding: same mix on ice; SPR: 33 mM Tris-HCl pH 8.0, 5 mM MgCl2, 3 mM DTT, 25 C. Conditions: protein: recombinant; label: 32P 5'-end; blunt.

The target in a further series is ParE (Escherichia coli, UniProt P20083 1-630). Kind of series: filter binding; 20 nM protein; most efficient of those tested; EMSA: 35 mM Tris-HCl pH 7.5, 1 mM spermidine, 25 mM K-glutamate, 90 ug/ml tRNA, 1.4 mM ATP, 50 ug/ml BSA, room temp (25 C), 1 nM DNA; filter binding: same mix on ice; SPR: 33 mM Tris-HCl pH 8.0, 5 mM MgCl2, 3 mM DTT, 25 C. Conditions: protein: recombinant; label: 32P 5'-end; blunt.

In series [6] the target is T1, DNA gyrase holoenzyme (MsGyr). Briefly: pull-down; first DNA, then 240 bp; 200 nM enzyme; EMSA: 35 mM Tris-HCl pH 7.5, 1 mM spermidine, 25 mM K-glutamate, 90 ug/ml tRNA, 1.4 mM ATP, 50 ug/ml BSA, room temp (25 C), 1 nM DNA; filter binding: same mix on ice; SPR: 33 mM Tris-HCl pH 8.0, 5 mM MgCl2, 3 mM DTT, 25 C. To be noted: protein: recombinant; chain copies: 2;2; label: biotin on one strand, 32P on complement; blunt.

The target is the same in series [7]. Kind of series: EMSA; 1.4 mM ATP; one complex; EMSA: 35 mM Tris-HCl pH 7.5, 1 mM spermidine, 25 mM K-glutamate, 90 ug/ml tRNA, 1.4 mM ATP, 50 ug/ml BSA, room temp (25 C), 1 nM DNA; filter binding: same mix on ice; SPR: 33 mM Tris-HCl pH 8.0, 5 mM MgCl2, 3 mM DTT, 25 C. To be noted: protein: recombinant; chain copies: 2;2; label: 32P 5'-end; blunt.

B1: DNA II (72 bp) (dsDNA)
DNA 1: ACTCTAGAGGATCCCCGGTTGGACTAAGTCCCCAGGCCCCTTAGCCACCACAACGTGGGTACCGAGCTCGAA
DNA 2: TTCGAGCTCGGTACCCACGTTGTGGTGGCTAAGGGGCCTGGGGACTTAGTCCAACCGGGGATCCTCTAGAGT
In the case of B1, the binding result (in series [1]; in series [2]; in [3]; in the series with GyrB (MsGyrB); in series [4]; in [5] (label: 32P 5'-end)) was “binds” throughout. Besides, the binding result is “no binding” with GyrB R321A and “binds” with ParE.

B2: biotinylated 72 bp DNA (dsDNA)
DNA 1: B1 DNA 1
DNA 2: B1 DNA 2
Regarding B2, the binding result in series [6] is “binds”.

B3: DNA III (143 bp) (dsDNA)
DNA 1: GTAAAACGACGGCCAGTGCCAAGCTTGCATGCCTGCAGGTCGACTCTAGAGGATCCCCGGTTGGACTAAGTCCCCAGGCCCCTTAGCCACCACAACGTGGGTACCGAGCTCGAATTCGTAATCATGGTCATAGCTGTTTCCTG
DNA 2: CAGGAAACAGCTATGACCATGATTACGAATTCGAGCTCGGTACCCACGTTGTGGTGGCTAAGGGGCCTGGGGACTTAGTCCAACCGGGGATCCTCTAGAGTCGACCTGCAGGCATGCAAGCTTGGCACTGGCCGTCGTTTTAC
As for B3, the binding result in series [2] and in series [5] (label: 32P 5'-end (forward primer)) was “binds” in each case.

B4: DNA I (40 bp) (dsDNA)
DNA 1: GGTTGGACTAAGTCCCCAGGCCCCTTAGCCACCACAACGT
DNA 2: ACGTTGTGGTGGCTAAGGGGCCTGGGGACTTAGTCCAACC
Take B4: the binding result in series [2] and in series [7] was “binds” throughout.
